Assay results: publication PMC6697681, “The predominance of nucleotidyl activation in bacterial phosphonate biosynthesis” (Nature Communications, 2019)

Legend:
[1] = system: C[N+](C)(C)CCOP(=O)([O-])O; assay: purified protein; details: saturating CTP (4 mM), 7 mM MgCl2, room temperature; fit with substrate inhibition
NCCP(=O)(O)O = assay: purified protein; details: saturating CTP (4 mM), 7 mM MgCl2, room temperature

| Substance | Km [1] | kcat [1] | kcat/Km [1] | Km (NCCP(=O)(O)O) | kcat (NCCP(=O)(O)O) |
| --- | --- | --- | --- | --- | --- |
| Ari-PntC (Ari1348) (Lancefieldella rimae ATCC 49626) | 1000 ± 800 µM | 0.7 ± 0.3 s⁻¹ | 720 M⁻¹ s⁻¹ | 12 ± 1 µM |  |
| Spn-LicC (Streptococcus pneumoniae R6) | 2.36 ± 0.65 µM | 1.06 ± 0.04 s⁻¹ |  | 318 ± 129 µM | 0.723 ± 0.054 s⁻¹ |
